Experimental data: patent publication US10689421B2, “Bacteriocin-producing Paenibacillus ehimensis and application thereof” (National Pingtung University of Science and Technology, priority 2018, dated 2020)

What was measured:
[1] = system: Escherichia coli; experiment: Inhibitory zone of Peocin on solid medium containing pathogen; format: cell-based; conditions: solid medium containing strain 10^6 CFU/ml
Source text: (§1) Following pathogens were subjected in the test. Six aquaculture pathogen: Aeromonas hydrophila, Vibrio vulnificus, Vibrio alginolyticus, Vibrio parahaemolyticus, Streptococcus agalactiae and Debaryomyces hansenii. Five foodborne pathogen which cause food rot and food poisoning: Staphylococcus aureus, Methicillin-resistant Staphylococcus aureus (MRSA), Escherichia coli, Salmonella typhimurium and Listeria monocytogenes. Two clinical infectious pathogens: Pseudomonas aeruginosa and Burkholderia gladioli causing leaf spot disease. Culture these strains separately and create solid medium containing these strains (10^6 CFU/ml). Add antibacterial protein after solid medium solidifies, then measure the antibacterial activity and inhibitory zone diameter.

[2] = system: Staphylococcus aureus; experiment: as above; format: cell-based; conditions: solid medium containing strain 10^6 CFU/ml
Source text: as §1

[3] = system: Aeromonas hydrophila; experiment: as above; format: cell-based; conditions: solid medium containing strain 10^6 CFU/ml
Source text: as §1

[4] = system: Burkholderia gladioli; experiment: as above; format: cell-based; conditions: solid medium containing strain 10^6 CFU/ml
Source text: as §1

[5] = system: Salmonella typhimurium; experiment: as above; format: cell-based; conditions: solid medium containing strain 10^6 CFU/ml
Source text: as §1

[6] = system: Vibrio parahaemolyticus; experiment: as above; format: cell-based; conditions: solid medium containing strain 10^6 CFU/ml
Source text: as §1

[7] = system: Vibrio vulnificus; experiment: as above; format: cell-based; conditions: solid medium containing strain 10^6 CFU/ml
Source text: as §1

[8] = system: Streptococcus agalactiae; experiment: as above; format: cell-based; conditions: solid medium containing strain 10^6 CFU/ml
Source text: as §1

[9] = system: Listeria monocytogenes; experiment: as above; format: cell-based; conditions: solid medium containing strain 10^6 CFU/ml
Source text: as §1

[10] = system: Pseudomonas aeruginosa; experiment: as above; format: cell-based; conditions: solid medium containing strain 10^6 CFU/ml
Source text: as §1

[11] = system: E. coli; experiment: Evaluation of antibacterial protein temperature tolerance; format: physicochemical; conditions: 30, 40, 50, 60, 70, 80, 90, 100 and 121° C. for 1 hour; control 4° C.
Experimental: Place 100 μl Peocin under 30° C., 40° C., 50° C., 60° C., 70° C., 80° C., 90° C., 100° C. and 121° C. respectively and stand for an hour, all treatment group except 121° C. group is put in the dry bath incubator, which can set to temperature 30° C.˜100° C. The 121° C. group is put in the sterilizer which can proceed wet heat sterilize at 121° C. Use Peocin stored under 4° C. as control group, and use the TSB agar plate containing E. coli to measure antibacterial activity and inhibitory zone diameter after an hour.

B1: Peocin: bacteriocin; DNA starvation/stationary phase protection protein produced by Paenibacillus ehimensis NPUST-1, amino acid SEQ ID NO: 1 (protein, listed as Paenibacillus ehimensis)
chain: MNEQLTVLLNNQIANWSVLYVKLHNYHWYVKGPQFFTLHTKFEELYTEAALHVDALAERLLALGGKPVATMSGSLRLASVREAEGEESAERMVAALVNDFTLIIGELKSGMKYAESVQDETTGDLLLAIHSSLEKHVWMLNAFLGN
[1]
  Diameter of inhibitory zone: 1.4 ± 0.00 cm
[2]
  Diameter of inhibitory zone: 1.1 ± 0.05 cm
[3]
  Diameter of inhibitory zone: 1.3 ± 0.00 cm
[4]
  Diameter of inhibitory zone: 1.5 ± 0.05 cm
[5]
  Diameter of inhibitory zone: 1.1 ± 0.05 cm
[6]
  Diameter of inhibitory zone: 1.2 ± 0.03 cm
[7]
  Diameter of inhibitory zone: 1.3 ± 0.00 cm
[8]
  Diameter of inhibitory zone: 1.4 ± 0.00 cm
[9]
  Diameter of inhibitory zone: 1.0 ± 0.05 cm
[10]
  Diameter of inhibitory zone: 1.2 ± 0.00 cm
[11]
  antibacterial activity after temperature treatment: maintain original antibacterial activity
